The results in this text go back to patent US20050065327A1.

In test [1] the target is human IL-13 (recombinant, bacterially derived, Peprotech) (human) (UniProt P35225). Nature of the test: cell-based or functional assay.
For test [2], the target named is native (naturally occurring) human IL-13 released from HDLM-2 cells (human) (UniProt P35225). Put plainly: cell-based or functional assay.
native (naturally occurring) human IL-13 released from HDLM-2 cells (human), sequence (P35225 other isoform, or with tags, fused parts or gaps): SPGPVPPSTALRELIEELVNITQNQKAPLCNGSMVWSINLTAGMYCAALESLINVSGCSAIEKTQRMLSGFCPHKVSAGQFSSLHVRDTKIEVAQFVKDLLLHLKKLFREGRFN

human IL-13 (recombinant, bacterially derived, Peprotech) (human), sequence (P35225 other isoform, or with tags, fused parts or gaps): as above

As to “B-B13 (commercial anti-human IL-13 antibody, mouse IgG1, Euroclone)”, in test [1], the IC50, TF-1 cell proliferation assay was 1020 pM and the IC50, eotaxin release from NHLF is 219 pM. In addition, the IC50, HDLM-2 cell proliferation assay in test [2] came out at 16700 pM.
In the same order, the values of “JES10-5A2 (commercial anti-human IL-13 antibody, rat IgG1, Biosource)” are 471 pM, 623 pM and 10700 pM.
